pKd: −log10 of the molar value.
Target: biotinylated Mtb DnaB (Mycobacterium tuberculosis)
Assay: BLI; Octet RED96; 200 nM biotinylated DnaB loaded on streptavidin biosensors, DciAMtb in solution at varying concentrations, 300 s association and 300 s dissociation; 150 mM NaCl, 0.02% Tween-20, 0.1% BSA, 10 mM NaPO4 pH 8; double reference subtracted; global fit, 1:1 kinetic binding model

Substance “DciAMtb, purified recombinant, untagged (from UniProt P9WFL1 1-187) (natural protein)” has a pKd of 6.68.

— paper PMC5720831
